According to the RNAGym collection of RNA variant scans (doi:10.7554/elife.90254):

B1: LINE1-full (parent)
chain: UACGUAGGUGGUUUUCCCCUGAUAGUGCUAAGGGGGCCUGGAAGUUUGGACUGGGCAGAGCUCAACACAGCGUGGCAAAGUGGCUGUGGCUAGACUGCCUCUCUGGAUUCCUCGUCACUCAGCAGGGCAUCUCUGAGAGAAAUGCC

Variants of: B1
Test: self-cleavage, relative activity (ratio to wild type); higher = more cleavage; in vitro, sequencing; the parent is a self-cleaving ribozyme

Row | Variant | self-cleavage
1 | A67G U134C | 0.56
2 | A67G U143G | 0.37
3 | A67U | 0.11
4 | A67U A69U | 0.04
5 | A67U A77G | 0.17
6 | A67U A77U | 0.04
7 | A67U A79G | 0.18
8 | A67U A79U | 0.21
9 | A67U A94U | 0.05
10 | A67U A107G | 0
11 | A67U A117U | 0.1
12 | A67U A121C | 0.2
13 | A67U A121G | 0.15
14 | A67U A124C | 0.17
15 | A67U A124G | 0.02
16 | A67U A136G | 0.2
17 | A67U A136U | 0.12
18 | A67U A140G | 0.09
19 | A67U A140U | 0.08
20 | A67U A141G | 0.13
21 | A67U A142G | 0.15

Row | Variant | self-cleavage
22 | A67U A142U | 0.14
23 | A67U C71U | 0.02
24 | A67U C84U | 0.02
25 | A67U C103A | 0.15
26 | A67U C128U | 0.1
27 | A67U C131A | 0.13
28 | A67U C133U | 0.1
29 | A67U C146A | 0.14
30 | A67U G74A | 0.08
31 | A67U G75A | 0.09
32 | A67U G88U | 0.02
33 | A67U G105U | 0.12
34 | A67U U73C | 0.18
35 | A67U U81A | 0.07
36 | A67U U85C | 0.01
37 | A67U U87C | 0.21
38 | A67U U96A | 0.02
39 | A67U U102A | 0.11
40 | A67U U102C | 0.1
41 | A67U U104A | 0.03
42 | A67U U104C | 0.25

Row | Variant | self-cleavage
43 | A67U U108A | 0.16
44 | A67U U109A | 0.11
45 | A67U U109C | 0.04
46 | A67U U112A | 0.13
47 | A67U U115C | 0.34
48 | A67U U119C | 0.19
49 | A67U U130A | 0.13
50 | A67U U134A | 0.08
51 | A67U U143C | 0.2
52 | C68A A69G | 0.07
53 | C68A A124G | 0.05
54 | C68A C146U | 0.06
55 | C68A U73C | 0.05
56 | C68A U87A | 0.01
57 | C68A U109C | 0.06
58 | C68G A121C | 0.03
59 | C68G A141G | 0.04
60 | C68U A77G | 0.24
61 | C68U A117G | 0.12
62 | C68U A117U | 0.25
63 | C68U A124U | 0.28

Row | Variant | self-cleavage
64 | C68U A129G | 0.06
65 | C68U A140G | 0.16
66 | C68U A140U | 0.22
67 | C68U A141G | 0.3
68 | C68U A142G | 0.14
69 | C68U C123G | 0.1
70 | C68U G74A | 0.2
71 | C68U G88A | 0.05
72 | C68U G122U | 0.21
73 | C68U U81A | 0.18
74 | C68U U81C | 0.18
75 | C68U U87C | 0.02
76 | C68U U108A | 0.2
77 | C68U U108C | 0.32
78 | C68U U109A | 0.21
79 | C68U U112C | 0.06
80 | C68U U115A | 0.2
81 | C68U U134C | 0.17
82 | A69C | 0.07
83 | A69C A77U | 0.09
